This passage reports Kd and koff results from PMC12827253 (2025).

Assay [1] concerns the target T1, human recombinant RIPK3 (human, UniProt Q9Y572 1-518). Description: BLI; fit at 100 nM GADD45β. For orientation: In BLI a coated tip is dipped into the sample, and binding shifts an interference pattern.
For assay [2], the target named is T1, human recombinant RIPK3. Briefly: BLI; fit at 25 nM GADD45β.
For assay [3], the target named is T1, human recombinant RIPK3. Description: BLI; average.
Assay [4] concerns the target T1, human recombinant RIPK3. Briefly: BLI; fit at 12 nM GADD45β.
The target of assay [5] is T1, human recombinant RIPK3. Briefly: BLI; fit at 3 nM GADD45β.
In assay [6] the target is T1, human recombinant RIPK3. Briefly: BLI; fit at 6 nM GADD45β.
The target in assay [7] is T1, human recombinant RIPK3. Description: BLI; fit at 50 nM GADD45β.

T1 sequence (Q9Y572 whole entry): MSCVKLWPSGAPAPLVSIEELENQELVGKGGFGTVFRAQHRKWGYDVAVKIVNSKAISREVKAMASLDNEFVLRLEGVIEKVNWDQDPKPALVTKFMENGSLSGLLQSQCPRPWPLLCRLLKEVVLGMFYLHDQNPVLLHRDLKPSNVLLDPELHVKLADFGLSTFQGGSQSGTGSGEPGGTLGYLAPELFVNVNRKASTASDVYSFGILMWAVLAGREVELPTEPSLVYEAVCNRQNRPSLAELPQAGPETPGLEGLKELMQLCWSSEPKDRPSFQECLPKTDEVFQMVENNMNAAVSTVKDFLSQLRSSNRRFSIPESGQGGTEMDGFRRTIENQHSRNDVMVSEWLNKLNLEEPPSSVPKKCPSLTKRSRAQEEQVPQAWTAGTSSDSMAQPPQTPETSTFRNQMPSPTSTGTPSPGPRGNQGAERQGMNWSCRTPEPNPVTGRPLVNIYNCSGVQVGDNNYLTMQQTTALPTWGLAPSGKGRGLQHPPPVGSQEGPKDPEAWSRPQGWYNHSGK

B1: recombinant human GADD45β (natural protein)
chain: MTLEELVACDNAAQKMQTVTAAVEELLVAAQRQDRLTVGVYESAKLMNVDPDSVVLCLLAIDEEEEDDIALQIHFTLIQSFCCDNDINIVRVSGMQRLAQLLGEPAETQGTTEARDLHCLLVTNPHTDAWKSHGLVEVASYCEESRGNNQWVPYISLQER
In the case of B1, the Kd was determined as 3.49 nM in the assay with human recombinant RIPK3 [1]; 1.96 nM in the assay with human recombinant RIPK3 [2]; 1.36 nM with human recombinant RIPK3 [4]; 0.111 nM with human recombinant RIPK3 [5]; 0.61 nM in the assay with human recombinant RIPK3 [6]; 2.85 nM with human recombinant RIPK3 [7]. The koff with human recombinant RIPK3 [3] was 0.000546 s⁻¹.

As usually defined, the Kd is a measure of binding affinity in units of concentration. By koff is commonly meant a measure of how fast the partners let go of each other.
